Results as given in the nanobody polyreactivity screen of Harvey et al. (2022).

Test: yeast display, Sf9 membrane polyspecificity reagent, FACS + sequencing; frameworks hold sequencing errors
Summary of the method: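 Galactose-induced (36–48 hours) yeast carrying a synthetic nanobody display library were exposed to 10% biotinylated, detergent-solubilized Sf9 membrane reagent at 4 °C for 1 hour. FACS followed streptavidin microbead enrichment, using low and high (top ~1%) gates for expression (anti-HA) and reagent binding (streptavidin). Colony PCR, MiSeq 2 × 250 sequencing and CDR-length filtering followed. Labels for polyreactivity reflect the gate of origin.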

| Sequence | polyreactivity (PSR sort gate) |
| --- | --- |
| QVQLVESGGGLVQAGGSLRLSCAASGSIFNRYAMGWYRQAPGKERELVAAIRSGDNTNYADSVKGRFTISRDNAKNTVYLQMNSLKPEDTAVYYCNARYGGYRARYTYNYWGQGTQVTVSS | high polyreactivity |
| QVQLVESGGGFVQAGGSLRLSCAASGSTFGTYAMGWYRQAPGKERELVAAISWSGGSTYYADSVKGRFTISRDNAKNTVYLQMNSLKPEDTAVYYCNATSSTPPGMDSWGQGTQVTVSS | low polyreactivity |
| QVQLVESGGGLVQAGGSLRLSCAASGRIFYLYTMGWYRQAPGKERELVAAITWSGGRTFYADSVKGRFTISRDNAKNTVYLQMNSLKPEDTAVYYCAARAYDSVGKYYYWGQGTQVTVSS | high polyreactivity |
| QVQLVESGGGLVQAGGSLRLSCAASGLTFPQYAMGWYRQAPGKERELVAAISKTGGSTYYADSVKGRFTISRDNAKNTVYLQMNSLKPEDTAVYYCAAVESGDRGQRNNYWGQGTQVTVSS | high polyreactivity |
| QVQLVESGGGLVQAGGSLRLSCGASGSTFGTYAMGWYRQAPGKERELVAAISWSGGSTYYADSVKGRFTISRDNAKNTVYLQMNSLNPEDTAVYWGQGTQVTVSS | low polyreactivity |
| QVQLVESGGGLVQAGGSLRLSCAASGSIFDIYAMGWYRQAPGKERELVAAITNGGSTYADSVKGRFTISRDNAKNTVYLQMNSLKPEDTAVYYCAAYVDQYEYNYWGQGTQVTVSS | low polyreactivity |
| QVQLVESGGGLVQAGGSLRLSCAASGRIFDWNMGWYRQAPGKERELVAGITFSVDSTYYADSVKGRFTISRDNAKNTVYLQMNSLKPEDTAYWGQGTQVTVSS | low polyreactivity |
| HVQLVESAGGLVQAGGSLSLSCAASGSTFKLYAMGRYRQAPGKESEFVAGISWRGGSTYYADSVKGRFTISRDNAKNTVYFQMNSLKPEDTAVYYCAARSFSNIGYHGYGYWGQGTQVTVSS | high polyreactivity |
| QVQLVESGGGLVQAGGSLRLSCAASGGSYVMGWYRQAPGKERELVAAITFSGRTYYADSVKGRFTISRDNAKNTVYLQMNSLKPEDTAGYYCAARERPGFRRPLTGGYDHWGQVTQVTVSS | high polyreactivity |
| QVQLVESGGGLVQAGGSLRLSCAASGSIFWDYAMGWYRQAPGKERELVAAISGSGTSTYYADSVKGRFTISRDNAKNTVYLQMNSLKPEDTAVYYCAARIWTGRGRKLGNGYDYWGQGTQVTVSS | low polyreactivity |
| QVQLVESGGGLVQAGGSLRLSCAASGFIFIYNAMGWYRQAPGKEREMVAAITGSDGGTFYADSVKGRFTISRDNAKNTVYLQLNSLKPEDTAVYYCNADNGSRQSRDGYESWGQGTQVTVSS | low polyreactivity |
| QVQLVESGGGLVQAGGSLRLSCAASGSIFLFNAMGWYRQAPGKERELVAAINRDDSTYYADSVKGRFTISRDNAKNTVYLQMNSLKPEDTAVYYCAAPVLHASYGYGYWGQGTQGTVSS | low polyreactivity |
| QDQLVESGGGLVQAGGSLRLSCAASGSTFVKYAMGWYRQAPGKERELVAAITKGGGSTYYADSVKGRFTISRDNAKNTVYLQMNSLKPEDTAVYYCNTSPHYRYGMDYWGQGTQVTVSS | high polyreactivity |
| QVQLVESGGGLVQAGGSLRLSCAASGIIFVDYVMGWYRQAPGKERELVAAITYTGGSTYYADSVKGRFTISRDNAKNTVYLQMNSLKPEDTAVYYCAARRKHRFFPAYYYWGQGTQVTVSS | high polyreactivity |
| QVQLVESGGGLVQAGGSLRLSCAASGSTFKANAMGWYRQAPGKERELVASIRFSAGSTYYADSVKGRFTISRDNAKNTVYLQMNSLKPEDTAVYYCAAGRHVLKRRYDYWGQGTQVTVSS | low polyreactivity |
| QDQLVESVGGLVQAGASLRLSCAATGRTFTTYAIGLYRPAPGKERELVAAITSGTSTNYADSVKGRFTISRDTAKNTVYVQMNSLKPEDTAVYYCAAPHGRGYEYWGQGTQVTVSS | high polyreactivity |
| QVQIVESGGCLVQAGGSLRLSWAASGGIFSTNAMGWYRQAPGKERELVAAISRRGGSTYYADSVKGRFTISRDNAKNTGYLQMNSLKPEDTAVYYCNKYLRLFSYGRGYDYWGQGTQVTVSS | high polyreactivity |
| QVQLVESGGGLVQAGGSLRLSCAASGRIFYNYAMRWYRQAPGKERELVAAISGSGGSTYYADSVKGRFTISRDNAKNTVYLQMNSLKPEDTAVYYCSTSGPQYYSRNFDYWGQGTQVTVSS | low polyreactivity |
| QVQLVESGGGLVQAGGSLRLSCAASGFTFAKYAMGWYRQAPGKERELVAAIRSRGDTTYYADSVKGRFTISRDNAKNTVYFQLNSLKPEDTAVYYCSARSYFLVDGSRYDYCGQGTQVTVSS | high polyreactivity |
| QVQLVESGGGVVQAGGSLRLSCAASGFIFNAYAMGSYRQAPGNERELVAAINTSGGRTNYADSVKGRFTISRDNAKNTVYLQMNSLKPEDTAVYYCAARNRFGGNYWGQGTQVTVSS | high polyreactivity |
| QVQLVESGGGLVQAGGSLRLSCAASGFIFTVNAMGWYRQAPGKERELVAAITQSGGNTSYADSVKGRFTISRDNAKNTVYLQMNSLKPEDTAVYYCNAEYTWPYHGVRNGWFNFKYEYWGQGTQVTVSS | low polyreactivity |
| QVQLVESGGGLVQAGGSLRLSCAASGFTFGNYAMGWYRQAPGKERELVAAISSRGGSTYYADSVKGRFTISRDNAKNTVYLQMNSLKPEDTAVYYCNALRLEVDMGYWGQGTQITVSS | high polyreactivity |

| Sequence | polyreactivity (PSR sort gate) |
| --- | --- |
| QVQLVESGGGLVQAGGSLRLSCAASGSIFESYAMGWYRQAPGKERELVAAIDYSGGSTYYADSVKGRFTISRDNAKNSVYLQMNSLKREDTAVYYCAAGYRTYYGYRYGYWGQGTQVTVSS | high polyreactivity |
| QVQLVESGGGLVQAGGSLRLSCAASGNIFQKYAMGWYRQAPGKERELVAAIRRGDRTYADSVKGRFTISRDNAKNTVYLQMNSLKPEDTAVYYCNTAGASYFTAGYGYWGQGTQVTVSS | low polyreactivity |
| QVQLEESGGGLVQAGGSLRLSCAASGRTFGLNAMGWYRQAPGKERELVAAITYSGGSTYYADSVKGRCTISRDNAKNTVYLHMNSLKPEDTAVYYCAKEVQTYWYHYYYWGHGTQVTVSS | high polyreactivity |
| QVQLVESGGGLVQAGGSLRLSCAASGSTFHYYAMGWYRQAPGKERELVATITRRGDSTYYADSVKGRFTISRDKAKNTVYLQMNSLKPEDTAVYYCATRYWRSGYDWPYGYWGQGTQVTVSS | high polyreactivity |
| QVQLVESGGGLVQAGGSLRLSCAASGNIFGGNAMGWYRQAPGKERELVAAITRGGSTYYADSVKGRFTISRDNAKNTVYLQMNSLTPEDTAVYYCAAQLFKWKNRQSLWFDHGYYWGQGTQLTVSS | low polyreactivity |
| QVQLVESGGGLVQAGGSLRLSCAASGSIFWNYAMGWYRQAPGKEREFVASISRSGGSTYYADSVKGRFTISRDNAKNTVYLQMNSLKPEDTAVYYCAARGVKISYNYWGQGTQVTVSS | high polyreactivity |
| QVQLVESAGGLVQAGGSLRLSCAASGFIINKYTMGWYRQAPGKERELVAAITWSGGTTYYADSVKGRFTISRDNAKNTVYLQMNSLKPEDTAVYYCAAYYYRGRVGAYDYWGQGTQVTVSS | high polyreactivity |
| QVQLVESGGGLLQAGGSLRLSCAASGVIFSWYAMGWYRQAPGKERELVAAINWSGDSTYYADSVKGRFTISRDNAKNTVYLQMNSLKPEDTAVYYCAADPSYWGDPYDYWGQGTQVTVSS | high polyreactivity |
| QVQLVESGGGLVQAGGSLRLSCAASGIIFLVYAMGWYRQAPGKERELVAGISGSATSTNYADSVKGRFTISRDNAKNTVYLQMNSLKPEETAVYYCAASYYGYYVPDNSKYGYWGQGTQVTVSS | low polyreactivity |
| QVQLVESGGGLVQAAGSLRLSCAASGSIFETYAMGWYRHAPGKERELVAAITQSGGSTYYADSVKGRFTISRDNAKNTVYLQMNSLKPEDTEVYYCAADLFVWWNWGYEYWGQGTQVTVSS | low polyreactivity |
| QVQLVESGGGLVQAGGSLSLICAASRFTFDSYAMGWYRQAPGKERELVAAINYSGGRTDYADSVKGRFTISRDNAKNTVYLQMNSLKPVDTAVYYCAAKGVRWGQGTQVTVSS | high polyreactivity |
| QVQLVESGGGLVQAGGSLRLSCAASGSTFYYYAMGWYRQAPGKERELVASISFSGGSTYYADSVKGRFTISRDNAKNTVYLQMNSLKPEDTAVYYCGYYYWGQGTQVTVSS | low polyreactivity |
| QVQLVESGGGLVQAGGSLRLSCAASGNTLDAYAMGWYRQAPGKERELVASITYRGGSTYYADSVKGRFTISRDNAKNTVYLQMNSLKPEDTAVYYCAAAYQKSPITPKMDYWGQGTQVTVSS | low polyreactivity |
| QVQLVESGGGLVQAGGSLRLSCAASGRTFSSNAMGWYRQAPGKERELVAVITRRGGSTYYADSVKGRFTISRDNAKNTVYLQMNSLKPEDTAVYYCATDAPPQRSGRRSAGQKYYYLGQGTQVTVSS | high polyreactivity |
| QVQLVDSGGGLVQAGGSLRLSCAASGITFDHYAMGWSRQAPGKEREFVAAIDDIGGDTYYADSVKGRFTISRDNAKNTVYLQMNSLKPEATAVYYCAADYGYYSRFYYWGQGTQVTVSS | low polyreactivity |
| QVQLVESGGGLVQAGGRLRLSCAASGFTFYVNAMGWYRQAPGKERELVAAIRGSGGSTYYADSVKGRFTISRVNAKITVYLQMNSLKPEDTAVYYCAKGKARSAQGSSRAYNYWGQGTQVTVSS | high polyreactivity |
| QVQLVESGGGLVHAGGSLRLSCAASGSTFDPNAMGWYRQAPGKERELVAAISWSGGSTYYADSVKGRFTISRDNAKNTVYLQMNSQKPEYTAVYYCNAQFYVSYSYTNDYWGQGTQVTVSS | low polyreactivity |
| QVQLVESVGGLVQAGGSLRLTCAASGLILRRYAMGWYRQAPGKEELVAAITSDASTYYADSVKGRFTISRYNAKNTVYLQMNSLKPEDPAVYYCAADTYDNDYYYWGQGTQVTVSS | high polyreactivity |
| QVQLVESGGGLFQAGGSLRLSCAASGRTFNFNVMGWYRQAPGKERELVAAMSKSTGSTFYADSVKGRFTISRDNAKNTVYLQMNSLKPEDTAGYYCAAKPSRSLYYYWGQGTQVTVSS | high polyreactivity |
| QVQLVESGGGLVKAGGSLRLSCAAYGIIYYPYAMGRYRHAPGKEWELVAAIDRSGSSTYYADSVKGRFTISRDNAKNTVYVQMNSLKPEDTAVYYCAAAHTYFTAYGDYWGQGTQVTVSS | low polyreactivity |
| QVQLVESGGGLVQAGGSLRLICAASGYTFRGNAMGRYRPAPGKERELVAAISGSGTRTYYADSVKGRFTISRDNAKNTVYLQMNSLKPEDTAVYYCNAKSLYHYHSADFDYWGQGTQVTVSS | high polyreactivity |
